We go through 10 molecules from patent US20250154231A1 (RQBIO COVID, published 2025).

The chains are these.
B1: Omi06 (antibody, V domains shown)
VH: EVQLLESGPGLVKPSETLSLTCTVSGGSISRYSWSWIRQPAGRGLEWIGRMYSSGGTNYNPSLESRVTMSLDTSKKQFSLKLSSVTAADTAVYYCAAASIDQVWGTYRDAFDIWGQGTMVTVSS
VL: AIRMTQSPSSLAASVGDRVTISCRAGQSISSFLHWYQQKVGKAPKLLIYDASSLQSGVPSRFSGSGSGTDFTLTISSLQPEDFAAYYCQQSYENPLTFGGGTKVDIK
B2: Omi42 (antibody, V domains shown)
VH: EVQLLETGGGLVQPGRSLRLSCAASGFPFDDYAIHWVRLAPGKGLEWVSSISWDSGSIGYADSVKGRFTISRDNAKNSLYLQMNSLRAEDTALYYCAKGAFPGYSSGWYYGLDVWGQGATVTVSS
VL: QSVVTQPPSASGSLGQSVTISCTGTSSDVGGYNYVSWYQQHPGKAPKLMIFEVSKRPSGVPDRFSGSKSGNTASLTVSGLQAEDEADYYCSSYAGNKGVFGGGTKLTVL
B3: Omi09 (antibody, V domains shown)
VH: QVQLVESGGGVVQPGRSLRLSCAASGFTFRTYAVHWVRQAPGKGPEWVAVISYDGSNKYYADSVKGRFTLSRDTSKNTLYLQMNSLRAEDTAVYYCASRGDTVTTGDAFDIWGQGTMVTVSS
VL: SYELTQPPSVSVSPGQTARITCSGDALPKQYTYWYQQKPGQPPVLVIYKDSERPSGIPERFSGSSSGTTVTLTISGVQAEDEADYYCQSTDSSATYPGNVVFGGGTKLTVL
B4: Omi41 (antibody, V domains shown)
VH: QVQLVQSGAEVKKPGASVKVSCKAAGYSFMNYGINWVRQAPGQGLEWMGWINTYNGNAKYAQKFQGRVTMTTDTSTSTAYMELRSLRSGDTAVYYCARDPFTGYDDVWGGDYWGQGTLVTVSS
VL: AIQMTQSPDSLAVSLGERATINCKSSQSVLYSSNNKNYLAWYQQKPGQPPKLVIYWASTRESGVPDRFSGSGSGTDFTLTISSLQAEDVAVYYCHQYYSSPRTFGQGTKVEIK
B5: Omi18 (antibody, V domains shown)
VH: QVQLVESGGGLIQPGGSLRLSCAASGITVSSNYMTWVRQAPGKGLEWVSLLYAGGSAFYADSVKGRFTISRDNSKNTLYLLMNSLRVGDTAVYYCARDLQVYGMDVWGQGTTVTVSS
VL: SYELTQPPSVSVAPGQTARITCGGNNDGAKSVHWYQQKPGQAPVLVVYDDSDRPSGIPERFSGSNSGNTATLTITRIEAGDEADYYCQVWDSSRDHVFGTGTKVTVL
B6: Omi08 (antibody, V domains shown)
VH: EVQLVESGAEVKRPGASVKVSCKASGYTFTNYFMHWVRQAPGQGLEWMGVINPSDGGASYPQKFQGRVTMTRDTSTSTVYMDLSSLRSEDTAVYSCARGAFDVSGSWYVPFDYWGQGTLVTVSS
VL: QSVVTQPPSVSGAPGQRVTISCTGSSSNIGAGYDVHWYQQLPGAAPKLLIYGNTNRPSGVPDRFSGSKSGTSASLAITGLQAEDEADYYCQSYDITLSGSGYVFGTGTKVTVL
B7: Omi16 (antibody, V domains shown)
VH: EVQLVESGGGVVQPGGSLRLSCAASGIIVSANYMTWVRQAPGKGLEWVSVIYPGGSTFYADSVKGRFTISRDNSKNTLYLQMNSLRVEDSAVYYCARDLELAGFNDFWGQGTLVTVSS
VL: DVVMTQSPGTLALSPGERATLSCRTSQSVSSNYLAWYQQKPGQAPRLLIYGASSRATGIPDRFSGSGSGTDFTLTISRLEPEDFAVYYCQQFGSSPRYTFGQGTKVEIK
B8: Omi17 (antibody, V domains shown)
VH: QVQLVESGGGVVQPGGSLRLSCAASGVTVSSNYMSWVRQAPGKGLEWVSVLYAGGSTFYADSVKGRFTISRDNSKNTLYLQMNSLRAEDTAAYYCARDLAVAGFLDSWGQGTLVTVSS
VL: DIVMTQSPGTLSLSPGERATLSCRASQGVSSIYLAWYQQKPGQAPRLVLYGASSRATGIPDRFSGSGSGTDFTLTISRLEPEDFAVYYCQQYGSSPRYTFGQGTKVEIK
B9: Omi39 (antibody, V domains shown)
VH: QVQLVESGGVVVQPGGSLRLSCAASGFSFDDYSMHWVRQAPGKGLEWVSVIYWDGVSKYYADSVKGRFTISRDNSKNSLYLQMNSLRTEDTAVYYCAKDSEDCSSTSCYMDVWGKGTTVTVSS
VL: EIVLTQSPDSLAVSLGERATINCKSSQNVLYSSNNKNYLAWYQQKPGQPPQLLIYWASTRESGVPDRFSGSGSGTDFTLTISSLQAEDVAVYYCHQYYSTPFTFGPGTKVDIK
B10: Omi12 (antibody, V domains shown)
VH: EVQLVESGPEVKKPGTSVKVSCKASGFSFSMSAMQWVRRARGQRLEWIGWIVPGSGNANYAQKFQERVTITRDESTNTGYMELSSLRSEDTAVYYCAAPHCNKTNCYDAFDIWGQGTMVTVSS
VL: AIRMTQSPGTLSLSPGERATLSCRASQSVRSSYLAWYQQKPGQAPRLLIYGASTRATGIPDRFSGSGSGTDFILTINRLEPEDLAVYYCQQFGSSPWTFGQGTKVDIK

The experiment concerns the target SARS-CoV-1 S protein (SARS-CoV-1, UniProt P59594 14-1195). In words: ELISA. (In an ELISA, binding on a coated surface is turned into a signal by an enzyme label.)
For B1, the binding result was “no binding”.
Under B2 stands “no binding”.
For B3, the binding result is “no binding”.
Under B4 stands “no binding”; under B5, “no binding”.
In the case of B6, the binding result is given as “no binding”.
Turning to B7, the binding result is on record as “no binding”.
Under B8 stands “no binding”; under B9, “no binding”.
Under B10 stands “no binding”.
